These sequences were tested on Escherichia coli TOP10 (assay: shrunken log2 fold change of peptide-encoding DNA abundance (4.5 h post-induction vs induction); higher = less antimicrobial activity (less host growth inhibition)). Conditions: time post-induction: 4.5 h; library: site-saturation at positions 5, 18, 19, 20.
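Further: peptides expressed intracellularly from a pBAD plasmid library in pooled LB shake-flask culture, induced with 0.3% L-arabinose, DNA abundance read by NGS, three biological replicates, DESeq2 with apeglm shrinkage.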

Sequence	shrunken log2 fold change
RRIRHRPPRLPRPRPRPYICPRP	-0.153
RRIRDRPPRLPRPRPRPYESPRP	0.00683
RRIRMRPPRLPRPRPRPVCMPRP	0.392
RRIRQRPPRLPRPRPRPPSLPRP	0.149
RRIRDRPPRLPRPRPRPDTNPRP	-0.0518
RRIRHRPPRLPRPRPRPFFMPRP	-0.564
RRIRIRPPRLPRPRPRPWTLPRP	-0.0808
RRIRNRPPRLPRPRPRPKVCPRP	-0.0345
RRIRVRPPRLPRPRPRPQEGPRP	-0.15
RRIRARPPRLPRPRPRPRFSPRP	0.308
RRIRLRPPRLPRPRPRPEFRPRP	0.126
RRIRTRPPRLPRPRPRPFRLPRP	-0.365
RRIRWRPPRLPRPRPRPCYWPRP	-0.201
RRIRMRPPRLPRPRPRPEAPPRP	3.4
RRIRIRPPRLPRPRPRPGSMPRP	-0.501
RRIRWRPPRLPRPRPRPWWMPRP	0.388
RRIRPRPPRLPRPRPRPEAWPRP	-0.0196
RRIRDRPPRLPRPRPRPVDPPRP	0.0517
RRIRCRPPRLPRPRPRPSVMPRP	0.445
RRIRERPPRLPRPRPRPPRVPRP	0.342
RRIRMRPPRLPRPRPRPREVPRP	1.8

Sequence	shrunken log2 fold change
RRIRCRPPRLPRPRPRPPQNPRP	0.801
RRIRDRPPRLPRPRPRPMVAPRP	0.00167
RRIRQRPPRLPRPRPRPWPYPRP	0.0155
RRIRNRPPRLPRPRPRPEYWPRP	-0.103
RRIRNRPPRLPRPRPRPYSSPRP	-0.027
RRIRGRPPRLPRPRPRPMEIPRP	-0.0753
RRIRTRPPRLPRPRPRPKPHPRP	0.0899
RRIRMRPPRLPRPRPRPAITPRP	0.0226
RRIRGRPPRLPRPRPRPWSKPRP	-0.423
RRIRGRPPRLPRPRPRPNDSPRP	-0.0552
RRIRCRPPRLPRPRPRPDNRPRP	-0.132
RRIRWRPPRLPRPRPRPNNRPRP	-0.559
RRIRWRPPRLPRPRPRPAQEPRP	0.149
RRIRYRPPRLPRPRPRPDLIPRP	-0.302
RRIRCRPPRLPRPRPRPYCHPRP	-1.37
RRIRQRPPRLPRPRPRPWFAPRP	-0.16
RRIRDRPPRLPRPRPRPSADPRP	0.368
RRIRFRPPRLPRPRPRPGAAPRP	0.517
RRIRLRPPRLPRPRPRPRQAPRP	-0.00965
RRIRRRPPRLPRPRPRPGNPPRP	0.608
RRIRERPPRLPRPRPRPESPPRP	0.0699

Sequence	shrunken log2 fold change
RRIRGRPPRLPRPRPRPGINPRP	0.499
RRIRLRPPRLPRPRPRPGGMPRP	-0.16
RRIRHRPPRLPRPRPRPGLMPRP	-0.162
RRIRNRPPRLPRPRPRPAKTPRP	0.0732
RRIRGRPPRLPRPRPRPRFNPRP	0.0824
RRIRRRPPRLPRPRPRPTQSPRP	0.804
RRIRGRPPRLPRPRPRPLWMPRP	0.343
RRIRYRPPRLPRPRPRPLWDPRP	-0.717
RRIRHRPPRLPRPRPRPGAWPRP	0.265
RRIRPRPPRLPRPRPRPTVVPRP	0.0581
RRIRWRPPRLPRPRPRPWVCPRP	0.186
RRIRVRPPRLPRPRPRPTLCPRP	0.0223
RRIRMRPPRLPRPRPRPRFIPRP	-0.154
RRIRYRPPRLPRPRPRPNLYPRP	-0.658
RRIRIRPPRLPRPRPRPFKQPRP	-0.246
RRIRARPPRLPRPRPRPIHYPRP	-0.241
RRIRDRPPRLPRPRPRPYVPPRP	-0.604
RRIRQRPPRLPRPRPRPKHIPRP	-0.456
RRIRMRPPRLPRPRPRPYIGPRP	-0.00926
RRIRQRPPRLPRPRPRPTSRPRP	-0.0729
RRIRWRPPRLPRPRPRPDDPPRP	-0.0101

— the supplement of paper PMC9112550, “Optimization of the antimicrobial peptide Bac7 by deep mutational scanning” (BMC Biology, 2022)
